Assay results from the supplement of paper PMC12338614.
± gives the uncertainty stated by the source.

B1: library; numbered along this chain (parent)
chain: MEVVDPQQLGMFTEGELMSVGMDTFIHRIDSTEVIYQPRRKRAKLIGKYLMGDLLGEGSYGKVKEVLDSETLCRRAVKILKKKKLRRIPNGEANVKKEIQLLRRLRHKNVIQLVDVLYNEEKQKMYMVMEYCVCGMQEMLDSVPEKRFPVCQAHGYFCQLIDGLEYLHSQGIVHKDIKPGNLLLTTGGTLKISDLGVAEALHPFAADDTCRTSQGSPAFQPPEIANGLDTFSGFKVDIWSAGVTLYNITTGLYPFEGDNIYKLFENIGKGSYAIPGDCGPPLSDLLKGMLEYEPAKRFSIRQIRQHSWFRKKHPPAEAPVPIPPSPDTKDRWRSMTVVPYLEDLHGADEDEDLFDIEDDIIYTQDFTVPGQVPEEEASHNGQRRGLPKAVCMNGTEAAQLSTKSRAEGRAPNPARKACSASSKIRRLSACKQQ

Variants of: B1
Assay: STK11 functional score (HeLa growth suppression), rescaled enrichment; synonymous median = 1, nonsense median = 0 (normalised score)
Conditions: with HeLa; variant type: missense
Method in brief: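 Functional scores are post/pre-selection log ratios corrected to wild type, rescaled to synonymous and nonsense medians, merged over codons and replicate transfections, and given bootstrapped error. They come from POPCode libraries of codon-optimised STK11 integrated by Bxb1 at an AAVS1 landing pad in HeLa, three regions each transfected three times, with BFP-negative, mCherry-positive integrants sorted by FACS and tiled gDNA amplicons sequenced on NextSeq.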

Row | Variant | STK11 functional score
1 | D359M | 1.6 ± 0.14
2 | T24G | 1.43 ± 0.13
3 | T24W | 1.6 ± 0.093
4 | F231S | 0.515 ± 0.38
5 | F231C | 1.33 ± 0.24
6 | P387M | 1.44 ± 0.11
7 | N94M | 0.437 ± 0.077
8 | S69A | 1.14 ± 0.16
9 | Q100T | 1.3 ± 0.43
10 | V338G | 1.18 ± 0.3
11 | E57Y | 0.95 ± 0.39
12 | M335V | 1.42 ± 0.13
13 | L105A | 1.32 ± 0.18
14 | Q37C | 0.0953 ± 0.088
15 | S169R | 0.882 ± 0.35
16 | K416D | 1.61 ± 0.12
17 | D229V | 0.388 ± 0.095
18 | C210D | 1.37 ± 0.26
19 | C210E | 0.0554 ± 0.2
20 | C210G | 1.03 ± 0.12
21 | P373H | 1.49 ± 0.37
22 | P373A | 1.08 ± 0.17
23 | R405S | 1.54 ± 0.37
24 | G15Y | 1.58 ± 0.29

Row | Variant | STK11 functional score
25 | P275N | 1.41 ± 0.16
26 | K403D | 1.53 ± 0.2
27 | A153P | -0.338 ± 0.074
28 | A153M | -0.195 ± 0.097
29 | P339E | 0.55 ± 0.16
30 | P339V | 0.729 ± 0.19
31 | C134W | 0.131 ± 0.097
32 | K312D | 1.49 ± 0.22
33 | K312L | 1.3 ± 0.12
34 | L164G | -0.142 ± 0.098
35 | D208Y | 0.93 ± 0.38
36 | D208A | 1.19 ± 0.23
37 | P323T | 1.32 ± 0.24
38 | K175F | 0.988 ± 0.35
39 | H107I | 0.0231 ± 0.17
40 | H107L | 0.324 ± 0.13
41 | L55H | 1.43 ± 0.47
42 | V243D | -0.0994 ± 0.17
43 | T363D | 1.45 ± 0.16
44 | L117V | 0.689 ± 0.083
45 | R106H | 1.62 ± 0.16
46 | Q399L | 1.31 ± 0.25
47 | T71R | 0.849 ± 0.16
48 | C151S | 1.13 ± 0.38

Row | Variant | STK11 functional score
49 | C151G | 0.587 ± 0.11
50 | P6V | 1.5 ± 0.15
51 | P6L | 0.99 ± 0.12
52 | V143W | 0.622 ± 0.081
53 | E293P | 0.842 ± 0.41
54 | R211C | 1.25 ± 0.43
55 | S299L | 0.649 ± 0.57
56 | Q433R | 0.937 ± 0.57
57 | R147A | 0.87 ± 0.19
58 | G276D | 1.33 ± 0.75
59 | I356T | 1.58 ± 0.43
60 | E256I | 1.04 ± 0.77
61 | E256S | 1.36 ± 0.4
62 | V66G | 0.814 ± 0.17
63 | V66I | 0.557 ± 1.1
64 | V66M | -0.0689 ± 0.32
65 | F298R | 0.428 ± 0.25
66 | F298L | 0.608 ± 0.15
67 | R40F | 1.3 ± 0.15
68 | G385W | 1.28 ± 0.14
69 | G385L | 0.869 ± 0.17
70 | K287E | 1.62 ± 0.27
71 | R297C | -0.195 ± 0.096
72 | R297F | -0.355 ± 0.076

Row | Variant | STK11 functional score
73 | C158S | 0.627 ± 0.15
74 | K178A | 0.756 ± 0.67
75 | F204A | 1.03 ± 0.52
76 | L102Q | 1.48 ± 0.65
77 | V63I | 1.45 ± 0.27
78 | M136G | -0.14 ± 0.082
79 | M136W | -0.224 ± 0.078
80 | G52S | 1.53 ± 0.27
81 | D115G | 0.497 ± 0.1
82 | S422R | 1.47 ± 0.19
83 | R425I | 0.977 ± 0.41
84 | R425M | 1.51 ± 0.29
85 | L17Y | 1.6 ± 0.25
86 | D358R | 1.34 ± 0.27
87 | E407V | 1.38 ± 0.25
88 | E407T | 1.61 ± 0.28
89 | N380W | 1.04 ± 0.73
90 | N380L | 0.908 ± 0.27
91 | N380H | 1.48 ± 0.38
92 | T13C | 1.59 ± 0.25
93 | N259T | 1.32 ± 0.51
94 | P280H | 1.17 ± 0.16
95 | P280E | 1.69 ± 0.21
96 | C430W | 1.02 ± 0.59

Row | Variant | STK11 functional score
97 | A316V | 0.768 ± 0.24
98 | D207G | 0.954 ± 0.25
99 | K96L | 0.614 ± 0.26
100 | K96W | 0.729 ± 0.42
101 | K96E | 0.384 ± 0.32
102 | K96Y | 1.23 ± 0.31
103 | M18A | 1.69 ± 0.16
104 | I267T | 1.11 ± 0.46
105 | G242D | 0.0263 ± 0.13
106 | P149V | 0.694 ± 0.095
107 | M392P | 1.63 ± 0.27
108 | E33T | 1.69 ± 0.25
109 | I361F | 0.984 ± 0.13
110 | I361L | 1.31 ± 0.35
111 | I361K | 0.624 ± 0.65
112 | K108R | 1.33 ± 0.16
113 | I360Y | 1.52 ± 0.2
114 | A414I | 1.33 ± 0.28
115 | M125W | 1.25 ± 0.15
116 | D343Q | 0.992 ± 0.12
117 | D343E | 1.45 ± 0.56
118 | L54K | 1.61 ± 0.23
119 | L54D | 1.14 ± 0.35
120 | L54A | 0.975 ± 0.29

Row | Variant | STK11 functional score
121 | E120S | 1.42 ± 0.18
122 | E120R | 0.779 ± 0.085
123 | D348I | 1.41 ± 0.13
124 | Q7P | 0.819 ± 0.22
125 | I35V | 0.925 ± 0.11
126 | I35F | 0.949 ± 0.091
127 | H202P | 0.806 ± 0.12
128 | A377I | 1.55 ± 0.2
129 | S378V | 1.04 ± 0.17
130 | N412K | 0.831 ± 0.33
131 | N412Y | 1.55 ± 0.3
132 | G279F | 1.27 ± 0.17
133 | V368A | 1.36 ± 0.22
134 | T250C | 1.22 ± 0.24
135 | I161T | 1.31 ± 0.66
136 | G56A | 0.838 ± 0.097
137 | L67A | 0.924 ± 0.77
138 | E199P | 0.87 ± 0.76
139 | E199K | 1.2 ± 0.76
140 | E199Q | 0.887 ± 0.61
141 | E199Y | 1.04 ± 0.34
142 | P203A | 0.904 ± 0.61
143 | L190R | 0.223 ± 0.19
144 | P38R | 0.891 ± 0.086

Row | Variant | STK11 functional score
145 | G188R | 1.19 ± 0.56
146 | G188W | 0.946 ± 0.11
147 | Y126L | 0.421 ± 0.13
148 | Q364R | 1.1 ± 0.27
149 | L140G | -0.0512 ± 0.082
150 | L9N | 1.67 ± 0.14
151 | R333V | 1.15 ± 0.64
152 | I172V | 1.21 ± 0.39
153 | I172F | 0.904 ± 0.34
154 | Q432W | 1.59 ± 0.34
155 | Q432G | 1.61 ± 0.27
156 | R383S | 1.3 ± 0.17
157 | R383Q | 1.51 ± 0.28
158 | I274G | 1.05 ± 0.26
159 | E92I | -0.0755 ± 0.16
160 | Q137T | 1.6 ± 0.28
161 | Q137V | 1.27 ± 0.12
162 | L353H | 1.4 ± 0.68
163 | F234W | 1.44 ± 0.21
164 | A318D | 1.51 ± 0.18
165 | A295F | 1.08 ± 0.42
166 | E351I | 1.27 ± 0.15
167 | E351C | 1.06 ± 0.11
